Measured values: US11203633B2, “Polynucleotides encoding antibodies or antigen binding fragments thereof that bind pseudomonas perv” (priority 2011, dated 2021)

Columns and labels:
[1] = system: P. aeruginosa strains (PAO1, 33356, 6294, 6077, 6206, PA103A); test: Acute pneumonia model in mice, survival; type: in vivo, Pseudomonas aeruginosa
Method: (§1) Antibodies or PBS were administered 24 hours before infection in each model. P. aeruginosa acute pneumonia, keratitis, and thermal injury infection models were performed as described (DiGiandomenico, A., et al., Proc Natl Acad Sci USA 104, 4624-4629 (2007)), with modifications. In the acute pneumonia model, BALB/c mice (The Jackson Laboratory) were infected with P. aeruginosa strains suspended in a 0.05 ml inoculum. In the thermal injury model, CF-1 mice (Charles River) received a 10% total body surface area burn with a metal brand heated to 92° C. for 10 seconds. Animals were infected subcutaneously with P. aeruginosa strain 6077 at the indicated dose. For organ burden experiments, acute pneumonia was induced in mice followed by harvesting of lungs, spleens, and kidneys 24 hours post-infection for determination of CFU.
The in vivo effect of administration of an anti-PcrV antibodies was studied in mice using an acute pneumonia model. Groups of mice were treated with either increasing concentrations of the V2L2 antibody, a positive control anti-PcrV antibody (mAb166), or a negative control (R347), as shown in FIG. 13 (A-B). Groups of mice were also treated with either increasing concentrations of the V2L2 antibody, the PcrV antibody PcrV-02, or a negative control (R347), as shown in FIG. 13 (C-D). Twenty-four hours after treatment, all mice were infected with 5×10^7 CFU (C) Pseudomonas aeruginosa 6294 (06) or (D) PA103A (O11).
Groups of mice were treated with either increasing concentrations of the 11A6, 3G5 or V2L7, the same concentrations of 29D2, 1F3, 1E6, V2L2, LE10, SH3, 4A8, 2H3, or 21F1, increasing concentrations of the 29D2, increasing concentrations of the V2L2, the PcrV antibody PcrV-02, or a negative control (R347), as shown in FIG. 13 (E-H). Mice were injected intraperitoneally (IP) with mAbs 24 hours prior to intranasal infection with Pseudomonas strain 6077 (1×10^6 CFU/animal).

[2] = system: P. aeruginosa strains (PAO1, 33356, 6294, 6077, 6206); test: Acute pneumonia model in mice, organ burden (CFU in lung, spleen, kidneys); type: in vivo, Pseudomonas aeruginosa
Method: as §1
Organ burden of Pseudomonas-infected mice was also studied in response to administration of V2L2. FIG. 14 (A) Mice were treated with either 1 mg/kg R347 (control), or 1 mg/kg, 0.2 mg/kg, or 0.07 mg/kg of V2L2 and then were infected intranasally with 1.2×10^6 cfu of Pseudomonas 6206. FIG. 14 (B) Mice were also treated with either 15 mg/kg R347 (negative control); 15.0 mg/kg, 5.0 mg/kg, or 1.0 mg/kg mAb166 (positive control); or 5.0 mg/kg, 1.0 mg/kg, or 0.2 mg/kg V2L2 and then were infected intranasally with 5.5×10^6 cfu of Pseudomonas 6206.
The in vivo effect of combination administration of anti-Psl and anti-PcrV binding domains was further studied in mice using the antibodies V2L2 and WapR-004 (RAD). Groups of mice were treated with R347 (2.1 mg/kg—negative control), V2L2 (0.1 mg/kg), W4-RAD (0.5 mg/kg), or V2L2/W4 combination (either 0.1, 0.5, 1.0 or 2.0 mg/kg each). Twenty-four hours post-administration of antibody, all mice were infected with an inoculum containing 5.25×10^5 cfu 6206 (O11-ExoU+). Twenty-four hours post infection, lungs, spleens, and kidneys were harvested, homogenized, and plated for colony forming unit (CFU) identification per gram of tissue.

[3] = system: P. aeruginosa strains 6206 and 6294; test: Acute pneumonia model in mice, histological examination of lung tissue; type: in vivo, Pseudomonas aeruginosa
[4] = system: P. aeruginosa (6077 exoU+; 6206) lysis of rabbit red blood cells; test: Rabbit red blood cell (RBC) lysis inhibition assay; type: cell-based, Pseudomonas aeruginosa; conditions: FIG. 12F
Method: Percent inhibition of cytotoxicity analysis was analysed for the parental V2L2 mAb, mAb166 (positive control) and R347 (negative control), where the antibodies were administered to cultured broncho-epithelial cell line A549 combined with log-phase P. aeruginosa strain 6077 (exoU+) at a MOI of approximately 10. A549 lysis was assayed by measuring released lactate dehydrogenase (LDH) activity and lysis in the presence of mAbs was compared to wells without mAb to determine percent inhibition. The V2L2 mAb, mAb166 (positive control) and R347 (negative control) were evaluated for their ability to prevent lysis of RBCs, where the antibodies were mixed with log-phase P. aeruginosa 6077 (exoU^+) and washed rabbit red blood cells (RBCs) and incubated for 2 hours at 37°. Intact RBCs were pelleted and the extent of lysis determined by measuring the OD405 of the cell-free supernatant. Lysis in the presence of anti-PcrV mAbs was compared to wells without mAb to determine percent inhibition. The positive control antibody, mAb166, is a previously characterized anti-PcrV antibody (J Infect Dis. 186: 64-73 (2002), Crit Care Med. 40: 2320-2326 (2012)).

[5] = strain 6206 intranasal, V2L2 0.07-5 mg/kg, FIG. 14A-B
[6] = Table 5, 6206 5.25×10^5 cfu, R347 2.1 mg/kg, V2L2 0.1 mg/kg, WapR-004 0.5 mg/kg
[7] = Table 6A, strain 6294 1.33×10^7 CFU, 0.2 mg/kg (combination 0.1 mg/kg ea)
[8] = Table 6B, strain 6294 1.7×10^7 CFU, 0.2 mg/kg (combination 0.1 mg/kg ea)
[9] = Table 7, strain 6206 9.25×10^5 CFU, 0.2 mg/kg (combination 0.1 mg/kg ea)

B1: V2L2: anti-PcrV monoclonal antibody; VH SEQ ID NO:216, VL SEQ ID NO:217 (antibody, V domains shown)
VH: EMQLLESGGGLVQPGGSLRLSCAASGFTFSSYAMNWVRQAPGEGLEWVSAITISGITAYYTDSVKGRFTISRDNSKNTLYLQMNSLRAGDTAVYYCAKEEFLPGTHYYYGMDVWGQGTTVTVSS
VL: AIQMTQSPSSLSASVGDRVTITCRASQGIRNDLGWYQQKPGKAPKLVIYSASTLQSGVPSRFSGSGSGTDFTLSISSLQPDDFATYYCLQDYNYPWTFGQGTKVEIK
modifications: V2L2 VH; V2L2 VL
survival ([1]; 6206, Bs3-V2L2 0.28 mg/kg, V2L2 0.2 mg/kg, monitored 120 hours, FIG. 21A): survived | protection against additional strains ([1]; 6294 and PA103A, 0.04-5 mg/kg, FIG. 13I): protects against additional Pseudomonas strains (i.e., 6294 and PA103A) | survival ([1]; increasing concentrations 24 hours before infection, strains 6077, 6294, PA103A, FIG. 13A-D): dose-dependent effect on improved survival even out to 168 hours post-infection | protection compared to mAb166 ([1]; similar doses, strains 6077 and 6294, FIG. 13A-B): significantly more potent protection than mAb166 at similar doses | protection in vivo ([1]; strain 6077 (1×10^6 CFU/animal) intranasal, mAbs IP 24 hours prior, 11A6, 3G5, V2L7 5 or 1 mg/kg, 29D2 and V2L2 25 mg/kg, FIG. 13E-G): provides protection in vivo | organ burden ([2]; 6206 (O11-ExoU+) 5.25×10^5 cfu, V2L2 0.1 mg/kg, W4-RAD 0.5 mg/kg, FIG. 15): effective in lowering organ burden | reduction in organ CFU compared to mAb166 ([2]; strain 6206, similar doses, FIG. 14B): significantly greater reduction in organ CFU than mAb166 at similar doses | clearance in the kidney [2, 5]: little effect on clearance in the kidney | dissemination to lung and spleen [2, 5]: greatly reduced dissemination to both the lung and spleen in a dose-dependent manner | Inflammatory Infiltrate [3, 6]: PMN 3+ | Involved Lung Surface Area [3, 6]: 55% | Overall Impression [3, 6]: Broncho interstitial pneumonia | Overall Impression ([3]; Table 6A, BALB/c mice, strain 6294 1.33×10^7 CFU, 0.2 mg/kg (combination 0.1 mg/kg ea)): Broncho interstitial pneumonia | Bacteria [3, 7]: Neg-1+ | Hemorrhage (extent) [3, 7]: Extensive | Inflammatory Infiltrate [3, 7]: PMN 3+ | Involved Lung Surface Area [3, 7]: (57%), mild epithelial injury, | Overall Impression ([3]; Table 6B, BALB/c mice, strain 6294 1.7×10^7 CFU, 0.2 mg/kg (combination 0.1 mg/kg ea)): Broncho interstitial pneumonia | Bacteria [3, 8]: Neg | Inflammatory Infiltrate [3, 8]: PMN 2+ | Involved Lung Surface Area [3, 8]: (30%), mild epithelial injury, | Overall Impression ([3]; Table 7, BALB/c mice, strain 6206 9.25×10^5 CFU, 0.2 mg/kg (combination 0.1 mg/kg ea)): Broncho interstitial pneumonia | Inflammatory Infiltrate [3, 9]: PMN 2-3+ | Involved Lung Surface Area [3, 9]: (40%), mild epithelial injury, | potency in prevention of RBC lysis, V2L2 vs 29D2 [4]: more potent in prevention of RBC lysis than the 29D2
